We go through 1 substance from patent US5985630A, “Assay for detecting inhibitors of aminoacyl-tRNA synthetases” (Zeneca Limited, priority 1993, dated 1999).

Holding throughout (format): biochemical, E. coli
Data set [1] relates to T1, Nc1ncnc2c1ncn2[C@@H]1O[C@H](COP(=O)(O)OP(=O)(O)OP(=O)(O)O)[C@@H](O)[C@H]1O.
T1 construct: endogenous in cells; enzyme partially purified in house
Briefly: 3H-isoleucine-based radiolabelled (standard radiometric) assay. The settings on record: other: 3H-Ile assay; pH 7.4; 37.0 °C. Here is the method: (§1) 2. Measurement of ITRS Activity using a ^3 H-Isoleucine-Based Radiolabelled Assay
(§2) The activity of ITRS during fractionation was monitored using conditions based on the method described by Steinmetz and Weil (7), and as described below. Stock reagents used in the method are as follows:
(§3) Prepared as described above. The specific activity of the enzyme used in the present example was approximately 145 nM of product formed/minute/mg, and was about 5%-10% active. The enzyme was diluted as appropriate. It will be appreciated that the enzyme amounts in the assay can be adjusted according to the purity of the enzyme used.
(§4) The assay mixture for a final volume of 200 μl was composed of:
(§5) The standard assay (in 200 μl) was carried out in quadruplicate in Eppendorf microcentrifuge tubes. The ingredients were preincubated for 2-3 minutes at 37° C., and the reaction started by addition of approximately 20 μl of the appropriately diluted enzyme extract as described above.
(§6) The final reaction contained reagents in the following concentrations:
(§7) 0.1% bovine serum albumin […]
(§8) 200 μl of the reaction mixture was pipetted onto 1.5 cm^2 cellulose 3MM filters. […] The dried filters were placed in 20 ml scintillation vials and the radioactivity counted in 15 ml Optiphase.
(§9) The inhibition constants of two compounds were measured and the results compared with the values obtained using the standard ^3 H-isoleucine assay.

Data set [2] deals with T2, CC[C@H](C)[C@H](N)C(=O)O.
T2 construct: endogenous in cells; enzyme partially purified in house
The description is as above. The note with it: other: 3H-Ile assay; pH 7.4; 37.0 °C. The protocol:
as §1, §2, §3, §4, §5, §6, §7, §8, §9

Data set [3] relates to T1, Nc1ncnc2c1ncn2[C@@H]1O[C@H](COP(=O)(O)OP(=O)(O)OP(=O)(O)O)[C@@H](O)[C@H]1O. Briefly: Colorimetric assay based on valine as substrate (valine-based assay of the invention). The settings on record: other: colorimetric assay; pH 7.4; 37.0 °C. Here is the method: (§10) 2. Measurement of ITRS activity using a Colorimetric Assay based on using Valine as Substrate
(§11) Incubations were set up in quadruplicate (as above) with a final volume of 200 μl as described below. Stock reagents used in the method were as follows:
as §3, §4
(§12) The standard assay (in 200 μl) was carried out in quadruplicate in Eppendorf microcentrifuge tubes. The ingredients were pre-incubated for 2-3 minutes at 37° C. and the reaction started by addition of 20 μl of appropriately diluted enzyme extract (as described above).
(§13) Thus the final reaction contained reagents in the following concentrations:
(§14) 0.12 mg of mixed tRNA species from E. coli (as described above) HPLC purified from […] available from by Sigma (UK) Ltd 1 unit/μl of inorganic pyrophosphatase and
(§15) an appropriate concentration of ITRS (for example […] of the enzyme as described above).
(§16) The samples were incubated at 37° C. for 20-60 minutes. […] The optical absorbance is then measured at a wavelength of 630 nm using a spectrophotometer.

Data set [4] has as its system T3, CC(C)[C@H](N)C(=O)O.
T3 construct: endogenous in cells; enzyme partially purified in house
The description is as above. The settings on record: other: non-cognate amino acid substrate of ITRS; pH 7.4; 37.0 °C. Here is the method:
as §10, §11, §3, §4, §12, §13, §14, §15, §16

What is called Km is the concentration of substrate that gives half-maximal velocity. As for “E. coli ITRS (isoleucyl-tRNA synthetase) (Escherichia coli K-12)”, the Km in data set [1] amounted to 47 µM; in data set [2], 4.3 µM; in data set [3] it was 48 µM; in data set [4], 500 µM.
